We go through four molecules from PMC6748131, “BFL1 modulates apoptosis at the membrane level through a bifunctional and multimodal mechanism showing key differences with BCLXL” (Cell Death and Differentiation, 2018).

Data set [1] deals with T1, BFL1ΔC L21A, Q16548.
T1 chain: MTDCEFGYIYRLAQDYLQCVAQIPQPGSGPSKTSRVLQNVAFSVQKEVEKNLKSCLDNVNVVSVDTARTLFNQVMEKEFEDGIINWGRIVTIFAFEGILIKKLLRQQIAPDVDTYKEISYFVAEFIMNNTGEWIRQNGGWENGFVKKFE
The data set can be described thus: FCCS. The conditions noted are these: chain shown with the change; 100% CL GUV; parent: est. 37; read off a plot.

For data set [2], the target named is T1, BFL1ΔC L21A, Q16548. Description: TIRF single-molecule brightness analysis. The settings on record: chain shown with the change, 100% CL SLB, 0.5 nM BFL1∆Cg proteins, 1 h at room temperature, read off a plot.
Data set [3] concerns the molecule itself. The data set can be described thus: single-molecule TIRF brightness analysis; BFL1ΔCg 0.5 nM incubated with LUV 1 h at room temperature, supported lipid bilayers; apoptotic-like membranes.
Data set [4] addresses T2, BFL1ΔC R88D, Q16548.
T2 chain: T1 chain with A21L, R88D
Description: FCCS. The conditions noted are these: chain shown with the change; 100% CL GUV; parent: est. 37; read off a plot.

In data set [5] the target is T2, BFL1ΔC R88D, Q16548. The data set can be described thus: TIRF single-molecule brightness analysis. The conditions noted are these: chain shown with the change, 100% CL SLB, 0.5 nM BFL1∆Cg proteins, 1 h at room temperature, read off a plot.
Data set [6] concerns the molecule itself. Description: SEC; protein in the presence of 100%CL LUV.

Where a chain is given by its changes, count along the chain named. Numbers in names are those of the source.

B1: BFL1ΔC (BFL1 lacking the C-terminal 24 residues, helix α9), Q16548 L21A (protein)
chain: T1 chain
Take B1: the other: %CC (cross-correlation, FCCS) in data set [1] was 22%. The other: occurrence of monomers (%) in data set [2] (parent: est. 26) worked out at 41%. The other: occurrence of dimers (%) in data set [2] (parent: est. 73) is 57%.

B2: BFL1ΔC (BFL1 lacking the C-terminal 24 residues, helix α9) (domain or fragment)
chain: T1 chain with A21L
modifications: Alexa 488 (BFL1ΔCg) or Alexa 647 (BFL1ΔCr) label in FCCS, TIRF and GUV imaging, site not stated; unlabelled in SEC
notes: BFL1 (BCL2A1) lacking the C-terminal 24 residues (helix α9, TA motif); Expressed from the vector pNIC28-Bsa4; Labelled (g, r) and unlabelled forms of the same construct are kept as one molecule; the assay's format tells which was used; also called BFL1ΔCg; BFL1ΔCr
Turning to B2, in data set [3], the “stoichiometry N” value was found to be 2.

B3: BFL1ΔC (BFL1 lacking the C-terminal 24 residues, helix α9), Q16548 R88D (protein)
chain: T1 chain with A21L, R88D
With B3, the other: %CC (cross-correlation, FCCS) in data set [4] came to 35%. Also, in data set [5] (parent: est. 26), the other: occurrence of monomers (%) worked out at 27%. Also, the other: occurrence of dimers (%) in data set [5] (parent: est. 73) was 71%.

B4: BFL1ΔC R88D (domain or fragment)
chain: T1 chain with A21L, R88D
modifications: Alexa 488 (g) or Alexa 647 (r) label in FCCS, site not stated; unlabelled in SEC and in the GUV retrotranslocation assay
notes: Same construct as m1 with one point mutation; also called BFL1ΔCg R88D; BFL1ΔCr R88D
In the case of B4, the binding result in data set [6] is on record as “binds”.
